Test results published in paper PMC11393453, “Phosphorylation of tau at a single residue inhibits binding to the E3 ubiquitin ligase, CHIP” (Nature Communications, 2024).
Numbering of substitutions follows the chain as printed. Where two headings read alike, the source gives them in different places. Non-standard residues stand in square brackets, D forms with d. pS = N[C@@H](COP(=O)(O)O)C(=O)O

Experiments:
CHIP [1] = assay: Differential scanning fluorimetry (DSF), CHIP WT with 10-mer peptides; assay type: binding, human; conditions: CHIP + peptide, sheet S3B
Description: DSF was performed with a 10 µL assay volume in 384-well Axygen quantitative PCR plates (Fisher Sci) on a qTower[3] real-time PCR thermal cycler (Analytik Jena). […] Temperature was increased 1 °C per cycle. Each well contained 5 µM CHIP, 5× Sypro Orange dye (Thermo Fisher), and varying concentrations of peptide in DSF assay buffer (25 mM HEPES pH 7.4, 50 mM KCl, 1 mM TCEP, 0.2% CHAPS, 1%DMSO). Fluorescence intensity data was truncated between 30–60 °C, plotted relative to temperature, and fit to a Boltzmann Sigmoid in GraphPad Prism 9.0. CHIP apparent melting temp (Tmapp) was calculated based on the following equation:1 Y=Bottom+((Top−Bottom)/(1+exp(Tm−T/Slope)))

[2] = molecular target: CHIP (C-terminus of Hsc70 interacting protein; STUB1) (UniProt Q9UNE7); assay: differential scanning fluorimetry of CHIP
[3] = molecular target: GFP-tagged tauC3 S416E, doxycycline-inducible in HEK293 Flp-In T-REx cells; assay: co-IP; tau immunoprecipitated with anti-Tau-5 and Protein A/G agarose from lysates of HEK293 Flp-In T-REx GFP-tau cells (25 mM Tris-HCl pH 7.4, 150 mM NaCl, 1 mM EDTA, 1% NP-40); co-precipitated endogenous CHIP by western blot
[4] = molecular target: CHIP (C-terminus of Hsc70 interacting protein; STUB1) (UniProt Q9UNE7); assay: tau IP (Tau-5), CHIP western blot; conditions: reference: GFP-tauC3 WT; sites S416
[5] = molecular target: CHIP (C-terminus of Hsc70 interacting protein; STUB1), recombinant human, full-length (human) (UniProt Q9UNE7)
[6] = molecular target: CHIP (C-terminus of Hsc70 interacting protein; STUB1), recombinant human, full-length (human) (UniProt Q9UNE7); remark: listed apart in the source
[7] = molecular target: CHIP (C-terminus of Hsc70 interacting protein; STUB1) (UniProt Q9UNE7); assay: competition FP against fluorescent tracer; conditions: reference: unmodified Hsp70 peptide; sites T636
CHIP [8] = assay: NanoBiT live cell PPI assay (CHIP-tau split luciferase); assay type: cell-based; conditions: 30 nM okadaic acid; HEK293 cells
Description: Fig. 1 Phosphorylation of tauC3 inhibits interaction with CHIP. A Cartoon schematic of the live-cell NanoBiT assay for measuring CHIP-tau PPIs (NanoBiT PDB = 7SNX; CHIP PDB = 2C2L). B Results of NanoBiT assays for CHIP interactions with tau proteoforms following treatment with okadaic acid (30 nM, 18 h) or DMSO control. Luminescence normalized to CHIP binding to FL 0N4R tau treated with vehicle (dashed line). Error bars represent standard deviation (SD). Statistical significance was determined by two-way ANOVA with Bonferroni’s post hoc analysis (n = 3 biological replicates). CTRL = mock transfected control. C Tau proteoforms binding to immobilized CHIP measured by ELISA. Assay was performed in technical triplicate and normalized to maximum absorbance at 450 nm. D Dissociation constants derived from (C). Error bars represent SD. E In vitro ubiquitination of tau proteoforms by CHIP. Samples were collected at the denoted timepoints, quenched in SDS-PAGE loading buffer, and analyzed by western blot. Assay was performed once.
Fig. 2 Phosphorylation of tauC3 Ser416 is sufficient to inhibit interaction with CHIP. A Cartoon depicting constructs used for mapping of inhibitory phosphorylation sites by NanoBiT live cell assays. B NanoBiT live cell assay for CHIP interactions with truncated tau constructs following treatment with okadaic acid (30 nM, 18 h) or DMSO control. Data are shown as the difference between okadaic acid treated samples and vehicle control. Error bars represent SD. Statistical significance was determined by two-sided, one-way ANOVA with Tukey’s post hoc analysis (n = 3 biological replicates). C Apparent change in melting temperatures (Tmapp) for CHIP incubated with DMSO control or Hsp70 C-terminal peptides, as determined by DSF. Error bars represent SD. (n = 4 technical replicates). D DSF experiments performed and analyzed as in the previous panel, but with tauC3-derived peptides. (n = 4 technical replicates). E Competition FP experiment showing displacement of fluorescent tracer from the CHIP TPR domain by various 10-mer Hsp70 or tauC3-derived peptides. Experiments were performed in technical quadruplicate. F Inhibition constants derived from (E). Error bars represent SD. G Tau proteoforms binding to immobilized CHIP, as measured by ELISA. Assay was performed in technical triplicate and normalized to maximum absorbance at 450 nm. H Dissociation constants derived from (G). Error bars represent SD.
CHIP-substrate NanoBiT PPI assay was performed as previously described. Briefly, HEK293T cells were seeded in poly-D-lysine coated 96-well plates (Corning, flat bottom, white opaque) in Opti-MEM. Cells were transfected with 50 ng each SmBiT/LgBiT DNA using Lipofectamine 3000 (Thermo Fisher) in Opti-MEM according to the manufacturer’s instructions. Transfections were performed for 24 h, after which the media was replaced with fresh Opti-MEM containing DMSO or 30 nM okadaic acid. Cells were incubated for an additional […] at 37 °C/5% CO2 in a humidified incubator. Following this incubation, 12.5 uL 1X Nano-Glo live cell luciferase reagent (Promega) diluted in LCS buffer (Promega) was added to each well, and samples were incubated for 10 min at room temperature in the dark to allow luminescence levels to stabilize. […] Un-transfected cells were used to obtain background measurements which were subtracted from observed luminescence values.

[9] = molecular target: T1, CHIP (C-terminus of Hsc70 interacting protein; STUB1), recombinant human, full-length (human, UniProt Q9UNE7 1-303); assay: fluorescence polarisation; competition: CHIP 1.58 µM + fluorescent tracer 20 nM, peptide competitor in three-fold dilutions, 25 mM HEPES pH 7.4, 50 mM KCl, 0.01% Triton X-100, DMSO; Ki calculated from IC50; conditions: both partners purified
T1 construct: CHIP (STUB1), human, E3 ubiquitin ligase; Used in ELISA, DSF and FP; the FP legends speak of the CHIP TPR domain, the FP methods only of CHIP; also called WT CHIP; source: E. coli BL21DE3, purified (Ni-NTA, TEV cleavage, SEC); not shown: His6, N-terminal, cleaved
T1 sequence (looked up): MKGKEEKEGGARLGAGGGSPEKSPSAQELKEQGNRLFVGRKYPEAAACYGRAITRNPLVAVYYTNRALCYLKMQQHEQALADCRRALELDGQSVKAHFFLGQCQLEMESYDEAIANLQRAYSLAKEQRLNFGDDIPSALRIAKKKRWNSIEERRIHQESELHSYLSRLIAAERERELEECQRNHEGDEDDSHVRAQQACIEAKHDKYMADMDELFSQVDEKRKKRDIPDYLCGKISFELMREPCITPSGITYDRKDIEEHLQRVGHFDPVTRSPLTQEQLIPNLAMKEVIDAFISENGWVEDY

CHIP D134A = molecular target: T2, CHIP D134A (human, UniProt Q9UNE7 1-303, D134A); assay: as above; conditions: both partners purified
T2 construct: CHIP (STUB1) with Asp134 mutated to alanine; also called D134A CHIP
T2 sequence (looked up): T1 sequence (looked up) with D134A

CHIP F131A = molecular target: T3, CHIP F131A (human, UniProt Q9UNE7 1-303, F131A); assay: differential scanning fluorimetry; 5 µM CHIP, 5x Sypro Orange, varying concentrations of peptide in 25 mM HEPES pH 7.4, 50 mM KCl, 1 mM TCEP, 0.2% CHAPS, 1% DMSO; apparent melting temperature (Tmapp) of CHIP; conditions: both partners purified
T3 construct: CHIP (STUB1) with Phe131 mutated to alanine
T3 sequence (looked up): T1 sequence (looked up) with F131A

[10] = reference: unmodified tauC3 peptide, sites S416

SETGSIDMVD [tauC3 S413E, 10-mer tauC3 phosphomimetic peptide]
Tm(app) derived from DSF curves (CHIP [1]; replicate 1): 50.06
Tm(app) derived from DSF curves (CHIP [1]; replicate 2): 50.15
Tm(app) derived from DSF curves (CHIP [1]; replicate 3): 49.96
Tm(app) derived from DSF curves (CHIP [1]; replicate 4): 49.5

SSEGSIDMVD [tauC3 T414E, 10-mer tauC3 phosphomimetic peptide]
Tm(app) derived from DSF curves (CHIP [1]; replicate 1): 49.33
Tm(app) derived from DSF curves (CHIP [1]; replicate 2): 49.12
Tm(app) derived from DSF curves (CHIP [1]; replicate 3): 49.22
Tm(app) derived from DSF curves (CHIP [1]; replicate 4): 48.96

tau (MAPT/tau; tauC3, FL 0N4R tau) C-terminal 10-mer of tauC3, ends at D421 (from UniProt P10636-8) S416E peptide (Ac-…-OH)
other: CHIP Tmapp [2, 10]: weaker; reference 48.81 ± 0.11

ESTGSIDMVD [tauC3 S412E, 10-mer tauC3 phosphomimetic peptide]
Tm(app) derived from DSF curves (CHIP [1]; replicate 1): 50.23
Tm(app) derived from DSF curves (CHIP [1]; replicate 2): 50.09
Tm(app) derived from DSF curves (CHIP [1]; replicate 3): 49.65
Tm(app) derived from DSF curves (CHIP [1]; replicate 4): 49.78

tau (MAPT/tau; tauC3, FL 0N4R tau) C-terminal 10-mer of tauC3, ends at D421 (from UniProt P10636-8) pS416 peptide
binding against the reference [2, 10]: weaker

endogenous CHIP (from UniProt Q9UNE7 1-303) (enzyme)
relative amount of co-immunoprecipitated CHIP [3]: 0.55

tau (MAPT/tau; tauC3, FL 0N4R tau) tauC3, ends at D421 (from UniProt P10636-8) GFP-tauC3 S416E
other: relative amount of co-IP CHIP [4]: 0.55

tauC3, unmodified recombinant (0N4R tau cleaved at D421) (domain or fragment)
Kd [5]: 190 nM
Kd [6]: 90 nM

p.tauC3, natively phosphorylated tauC3 from Sf9 insect cells (domain or fragment)
Kd [5]: 700 nM

Hsp70 (HSPA1A) C-terminal 10mer (from UniProt P0DMV8) pT636 peptide
binding against the reference [7]: weaker
binding against the reference ([2]; reference: unmodified Hsp70 peptide, sites T636): weaker

tauC3 S416E, recombinant protein with a single phosphomimetic mutation (domain or fragment)
Kd [6]: 780 nM

C=C1[C@@H](O)[C@@H]2O[C@]3(CC[C@H](/C=C/[C@@H](C)[C@@H]4CC(C)=C[C@@]5(O[C@H](C[C@@](C)(O)C(=O)O)CC[C@H]5O)O4)O3)CC[C@H]2O[C@@H]1[C@@H](O)C[C@H](C)[C@H]1O[C@@]2(CCCCO2)CC[C@H]1C [okadaic acid, reference compound]
effect on CHIP interaction with FL tau (CHIP [8]): enhanced CHIP’s interaction with FL tau
effect on CHIP interaction with tauC3 (CHIP [8]): significantly lessened the interaction with tauC3

B1: tauC3 C-terminal 10-mer peptide Ac-SSTGSIDMVD-OH (peptide)
peptide: Ac-SSTGSIDMVD-OH
notes: C-terminus of tauC3 (tau ending at D421); numbers count on: the 2N4R-tau splice isoform; also called WT tauC3 peptide; WT tauC3; source: synthetic peptide
Ki [9]: 150 nM
Ki (CHIP D134A): 5.57 µM
binding result (CHIP F131A): binds

B2: tauC3 pS416 10-mer peptide (peptide)
peptide: Ac-SSTG[pS]IDMVD-OH
notes: C-terminal 10-mer of tauC3 with a bona fide phosphoserine at the S416 position; numbers count on: the 2N4R-tau splice isoform; also called phosphorylated tauC3 peptide; source: synthetic peptide (Genscript)
Ki [9]: 1010 nM
Ki (CHIP D134A): 1.84 µM
